Measured values published in patent US20230265187A1 (published 2023).

T1: human TIGIT on Jurkat cells (TIGIT/NFAT reporter Jurkat cells, BPS Bioscience #60538); Promega TIGIT Effector … (human, UniProt Q495A1 22-244)
T1 construct: whole, on cells; Same protein on two bought Jurkat lines (flow cytometry: BPS; bioassay: Promega); also called hu TIGIT cells; cells expressing human TIGIT
T1 sequence (looked up): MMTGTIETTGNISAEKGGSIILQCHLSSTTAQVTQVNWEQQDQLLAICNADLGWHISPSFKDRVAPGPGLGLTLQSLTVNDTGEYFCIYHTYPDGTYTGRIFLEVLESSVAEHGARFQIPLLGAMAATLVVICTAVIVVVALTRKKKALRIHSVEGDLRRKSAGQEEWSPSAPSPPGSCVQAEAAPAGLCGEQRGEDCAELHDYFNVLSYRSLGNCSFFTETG

T2: his-tagged murine TIGIT (Acro Biosystems #TIT-M52E6) (murine, UniProt P86176 29-148, limits assumed)
T2 construct: Bought protein; also called mouse his-tagged TIGIT; not shown: his tag
T2 sequence (looked up): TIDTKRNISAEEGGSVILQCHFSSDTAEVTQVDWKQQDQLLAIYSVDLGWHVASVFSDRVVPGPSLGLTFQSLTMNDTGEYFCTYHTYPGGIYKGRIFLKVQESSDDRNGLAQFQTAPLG

T3: his-tagged human TIGIT (Acro Biosystems #TIT-H52H3) (human, UniProt Q495A1 22-141)
T3 construct: Bought protein; also called His-tagged-TIGIT (human); not shown: his tag
T3 sequence (looked up): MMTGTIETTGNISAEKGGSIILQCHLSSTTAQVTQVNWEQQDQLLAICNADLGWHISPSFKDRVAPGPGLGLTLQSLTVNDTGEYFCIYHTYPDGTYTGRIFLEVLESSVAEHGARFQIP


Experiments:
[1] = molecular target: T1, human TIGIT on Jurkat cells (TIGIT/NFAT …); test: flow cytometry, TIGIT/NFAT Jurkat cells, 10 ug/ml
[2] = molecular target: T4, His-tagged cynomolgus monkey TIGIT (Acro Biosystems #TIT-05223) (cynomolgus monkey, UniProt A0A7N9I9V4 89-209); test: SPR (Carterra LSA), scFv-Fc captured, His-TIGIT analyte; repeat
T4 construct: Bought protein; also called cyno TIGIT; cynomolgus TIGIT; not shown: His tag
Procedure: (§1) Binding affinities of anti-TIGIT antibodies to human, cyno, and murine TIGIT were measured by Surface Plasmon Resonance (SPR) on a Carterra LSA instrument. Goat anti-human Fc antibody was amine coupled to a HC30M chip. ScFv-Fc supernatants were diluted 30-fold with HBSTE and were captured by the anti-human Fc coupled HC30M chip. A 1:2 dilution series of his-tagged human TIGIT, starting at 400 nM, was injected onto the chip for binding. A dilution series was also carried out for cyno TIGIT and murine TIGIT. Data were analyzed using the Carterra™ Kinetics software.

[3] = molecular target: T1, human TIGIT on Jurkat cells (TIGIT/NFAT …); test: cell-based or functional assay
[4] = molecular target: T2, his-tagged murine TIGIT (Acro …); test: ELISA, coated His-TIGIT, 1 ug/ml
[5] = molecular target: T3, his-tagged human TIGIT (Acro Biosystems …); test: ELISA, coated His-TIGIT, 1 ug/ml
[6] = molecular target: T4, His-tagged cynomolgus monkey TIGIT …; test: ELISA, coated His-TIGIT, 1 ug/ml
[7] = molecular target: T3, his-tagged human TIGIT (Acro Biosystems …); test: SPR (Carterra LSA), scFv-Fc captured, His-TIGIT analyte
Procedure: as §1

[8] = molecular target: T4, His-tagged cynomolgus monkey TIGIT …; test: as above
Procedure: as §1

[9] = molecular target: T2, his-tagged murine TIGIT (Acro …); test: as above
Procedure: as §1

T4 sequence (A0A7N9I9V4 entry or part of it): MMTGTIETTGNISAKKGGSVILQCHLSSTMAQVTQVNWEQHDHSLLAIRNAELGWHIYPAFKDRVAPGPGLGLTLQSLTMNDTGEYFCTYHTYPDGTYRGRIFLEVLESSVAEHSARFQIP

Row | Binder | MFI [1] [MFI] | Kd [2] [nM] | max. signal (% of 22G2) [3] | Elisa OD450 [4] [OD450] | Elisa OD450 [5] [OD450] | Elisa OD450 [6] [OD450] | Kd [7] [nM] | Kd [8] [nM] | Kd [9] [nM]
1 | 43586p1.2.F6 (scFv, V domains shown, Tested as scFv-Fc supernatant; also called 43586p1.2.F06) VH: EVQLLESGEGLVQPGGSLRLSCAASGFTFTSYLMSWVRQAPGKGLEWVSTITWDGDRTYYADSVKGRFTISRDNSKNTLYLQMNSLRVGDTAVYYCAKHWTVFQYGMDVWGQGTTVTVSS VL: QSVLTQPASASGTPGQRVTISCSGTISNIETKYVSWYQQLPGTAPKLLIYGNHQRPSGVPDRFSGSKSGTSASLAISGLQSEDEADYYCASWENDLKSWVFGGGTKLTVL | – | 4.6 | – | – | – | – | 0.223 | 38.1 | –
2 | 43586p2.G01 (scFv, V domains shown) VH: EVQLLESGGGLVQPGGSLRLSCAASGFTVSSNWMSWVRQAPGKGLEWVSTTSSSSWNNYTYYADSVKGRFTISRDNSKNTLYLQMNSLRAEDTAVYYCAKGSYGMDVWGQGTTVTVSS VL: QSVLTQPPSASGTPGQRVTISCSGSNSNIGAKYLYWYQQLPGTAPKLLIYLNDRRPSGVPDRFSGSKSGTSASLAISGLQSEDEADYYCAFWDDHLKGWVFGGGTKLTVL | 9720 | – | 110 % of 22G2 | 1.95 | 2.03 | 1.15 | 2.69 | 339 | 1.65
3 | 43645p1.D8 (scFv, V domains shown) VH: EVQLLESGGDLVQSGGSLRLSCAASGFSFWGYAMTWVRQAPGKGLEWVSTIAGNSYAYYADSVKGRFTISRDNSKNMVYLQMNGLRAEDTAVYYCAKDRSFYNYYDIDVWGQGTTVTVSS VL: not shown | 10300 | 1.9 | 108 % of 22G2 | 0.053 | 1.77 | 1.36 | 0.416 | 24.5 | –
4 | 43586p2.E08 (scFv, V domains shown) VH: EVQLLESGGDLVQPGGSLRLSCAASGFTFDDYVMSWVRQAPGKGLEWVSLINWNGDKTYYADSVKDRFTISRDNSKNTLYLQMNSLRAEDTAVYYCARHWIVFQYGLDVWGQGTTVTVSS VL: QSVLTQPLSASGTPGQRVTISCSGVSSNIEIKYVSWYQQLPGTAPKLLIYNSHQRPSGVPDRFSGSKSGTSASLAISGLQSEDEADYYCTSWDDRLKSWVFGGGTKLTVL | 11300 | – | 117 % of 22G2 | 2.03 | 1.46 | 1.87 | 0.252 | 1.83 | 5.79
5 | 43586p2.F11 (scFv, V domains shown) VH: EVQLLELGGSLVQPGGSLRLSCAASGFTFDDYVMSWVRQAPGKGLEWVSLINWNGDKTYYADSVKGRFTISRDNSKNTLYLQMNSLRAEDTAVYYCARHWIVFQYGLDVWGQGTTVTVSS VL: QSVLTQPLSASGTPGQKVTISCSGVSSNIEIKYVSWYQQLPGTAPKLLIYNSHQRPSGVPDRFSGSKSGTSASLAISGLQSEDEADYYCTSWDDRLKSWVFGGGTKLTVL | 9200 | – | 104 % of 22G2 | 1.93 | 1.98 | 1.92 | 0.307 | 2.09 | 6.23

Continued by falling Kd [7], values first:

Row | MFI [1] [MFI] | Kd [2] [nM] | max. signal (% of 22G2) [3] | Elisa OD450 [4] [OD450] | Elisa OD450 [5] [OD450] | Elisa OD450 [6] [OD450] | Kd [7] [nM] | Kd [8] [nM] | Kd [9] [nM] | Binder
6 | 9130 | – | 80 % of 22G2 | 1.93 | 2 | 1.09 | 2.53 | 334 | 3.94 | 43586p2.H02 (scFv, V domains shown) VH: EVQLLESGGGLVQPGGSLRLSCATSGFTVSDHYVSWVRQAPGKGLEWVSTSSSTNWNDGRTYYADSVKGRFTISRDNSENTLYLQMNSLRAEDTAVYYCAKGSYGMDVWGQGTTVTVSS VL: QSVLTQPPSASGTPGQRVTISCSASNSYIGTKYFYWYQQLPGTAPKLLIYLDSQRPSGVPDRFSGSKSGTSVSLAISGLQSEDEADYYCAFWDDHLHGWVFGGGTKLTVL
7 | 8960 | – | 92 % of 22G2 | 1.9 | 1.85 | 1.77 | 1.81 | 14.4 | 96 | 43586p2.F02 (scFv, V domains shown) VH: EVQLLESGGGLVQPGGSLRLSCAASGFTFDDYVMSWVRQAPGKGLEWVSLINWNGDKTYYADSVKGRFTISRDNSKNTLYLQMNSLRAEDTAVYYCARHWIVLQYGLDVWGQGTTVTVSS VL: QSVLTQPLSASGTPGQRVTISCSGVSSNIEIKYVSWYQQLPGTAPKLLIYNSHQRPSGVPDRFSGSKSGTSASLAISGLQSEDEADYYCTSWDDRLKSWVFGGGTKLTVL
8 | 9070 | 33 | 109 % of 22G2 | 0.046 | 1.96 | 1.41 | 0.386 | 63 | – | 43586p2.A03 (scFv, V domains shown) VH: EVQLLESGGGLVQPGGSLRLSCAASGFTFTSYAMSWVRQAPGKGLEWVAGISYIGRNEYYADSVKGRLTISRDNSKNTLYLQMNNLRAEDTAIYYCAKHLTGGTTDYYYYGMDVWGQGTTVTVSS VL: QSVLTQPPSASGTPGQRVTISCSGSTSNIGTSRYVHWYQQLPGTAPKLLIYFDSQRPSGVPDRFSASKSGTSASLAISGLQSEDEADYYCATWDDSLSAWVFGGGTKLTVL
9 | 9170 | 16 | 124 % of 22G2 | 0.048 | 1.93 | 1.25 | 0.292 | 31.6 | – | 43586p1.1.H8 (scFv, V domains shown) VH: EVQLLESGGGLVQPGGSLRLSCAASGFTFIDFWMSWVRQAPGKGLEWVSAISWIGDTYYYADSVKGRFTVSRDNSKNTVYLQMNSLRAEDTAVYYCAKHWTVYQYGMDVWGQGTTVTVSS VL: QSVLTQPPSASGTPGQRVIISCSGSTSDIETKYVSWYQQLPGTAPKLLIYGNHQRPSGVPDRFSGSKSGTSASLAISGLQSEDEADYYCTAWDNTLKSWVFGGGTKLTVL
10 | 12400 | 0.368 | 99 % of 22G2 | 1.01 | 1.94 | 1.73 | 0.0507 | – | – | 43645p1.G5 (scFv, V domains shown) VH: EVQLLESGGGLVQPGGSLRLSCAASGFTFSSYYMSWVRQAPGKGLEWVSAISIFSGDSTYYADSVKGRFTISRDNSKNTLYLQMNSLRAEDTAVYYCAKSHTVLQYGMDVWGQGTTVTVSS VL: QSVLTQPPSASGTPGQRVTISCSGVTSNIRNYYVSWYQQLPGTAPKLLIYGNDQRPSGVPDRFSGSKSGTSASLAISGLQSEDEADYYCGTWDNTLNAWVFGGGTKLTVL
11 | 9950 | 5.5 | 103 % of 22G2 | 0.947 | 1.99 | 1.53 | 0.0267 | 6.96 | – | 43645p1.E3 (scFv, V domains shown) VH: EVQLLESGGGLVQPGGSLRLSCAASGFTFSSYAMSWVRQAPGKGLEWVSAIYFDGSIYDADSVKGRFTISRDNSKNTLYLQMNSLRDEDTAVYYCAKSHTVLQYGMDVWGQGTTVTVSS VL: QSVLTQPPSASGTPGQRVTISCSGVTSNIRNSYVSWYQQLPGTAPKLLIYGNDQRPSGVPDRFSGSKSGTSASLAISGLQSEDEADYYCGTWDNTLNAWVFGGGTKLTVL
